Reference: PMC8784325, “The ubiquitin-binding domain of DNA polymerase η directly binds to DNA clamp PCNA and regulates translesion DNA synthesis” (The Journal of Biological Chemistry, 2021)
Substitutions are numbered along the chain they refer to. Numbers in names are those of the source.

T1: ScPolη (Saccharomyces cerevisiae, UniProt Q04049 1-632)
T1 construct: DNA polymerase eta (Rad30), Saccharomyces cerevisiae, 632 aa, wild type; also called ScRad30; S. cerevisiae DNA polymerase eta; source: purified
T1 sequence (looked up): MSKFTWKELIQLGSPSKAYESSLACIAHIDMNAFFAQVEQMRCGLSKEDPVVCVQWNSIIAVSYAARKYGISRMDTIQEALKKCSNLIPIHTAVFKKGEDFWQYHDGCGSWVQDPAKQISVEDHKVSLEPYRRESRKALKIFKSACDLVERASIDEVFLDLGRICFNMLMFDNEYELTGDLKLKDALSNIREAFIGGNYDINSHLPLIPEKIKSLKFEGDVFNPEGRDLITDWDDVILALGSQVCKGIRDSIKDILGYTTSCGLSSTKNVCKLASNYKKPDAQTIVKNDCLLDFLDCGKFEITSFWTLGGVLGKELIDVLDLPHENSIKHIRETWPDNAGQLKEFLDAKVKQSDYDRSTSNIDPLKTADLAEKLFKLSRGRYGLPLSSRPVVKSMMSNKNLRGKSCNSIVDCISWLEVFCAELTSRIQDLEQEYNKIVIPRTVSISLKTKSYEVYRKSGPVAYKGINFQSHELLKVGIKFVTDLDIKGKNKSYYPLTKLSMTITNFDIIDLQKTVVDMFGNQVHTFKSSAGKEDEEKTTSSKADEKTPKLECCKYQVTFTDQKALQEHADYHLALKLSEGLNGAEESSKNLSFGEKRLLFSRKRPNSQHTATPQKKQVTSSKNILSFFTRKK

T2: ScPCNA (Saccharomyces cerevisiae, UniProt P15873)
T2 construct: made in house; host or cells: E. coli BL21-DE3
T2 sequence (P15873 1-258): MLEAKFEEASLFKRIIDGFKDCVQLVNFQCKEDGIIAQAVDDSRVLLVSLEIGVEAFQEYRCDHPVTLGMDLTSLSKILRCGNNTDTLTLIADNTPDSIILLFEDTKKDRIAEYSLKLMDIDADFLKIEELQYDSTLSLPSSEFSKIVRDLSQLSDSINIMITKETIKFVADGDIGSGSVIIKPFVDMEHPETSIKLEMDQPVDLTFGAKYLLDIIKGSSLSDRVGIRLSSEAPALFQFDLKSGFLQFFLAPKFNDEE

B1: ScPCNA (natural protein, Saccharomyces cerevisiae, UniProt P15873 1-258, looked up)
chain: T2 sequence (P15873 1-258)
notes: proliferating cell nuclear antigen (PCNA), Saccharomyces cerevisiae; also called S. cerevisiae PCNA; source: E. coli BL21-DE3, purified
B2: CaPCNA (natural protein, Candida albicans, UniProt Q5AMN0 1-259, looked up)
chain: MLEGKFEEAALLKKVVEAIKDCVKKCNFNCSEHGITVQAVDDSRVLLVSLLIGQTSFSEYRCDRDVTLGIDLESFSKIIKSANNEDFLTLLAEDSPDQIMAILEEKQKEKISEYSLKLMDIDSEFLQIDDMEYDAVVNMPSSDFAKLVRDLKNLSESLRVVVTKDSVKFTSEGDSGSGSVILKPYTNLKNERESVTISLDDPVDLTFGLKYLNDIVKAATLSDVITIKLADKTPALFEFKMQSGGYLRFYLAPKFDDDE
notes: proliferating cell nuclear antigen (PCNA), Candida albicans; also called C. albicans PCNA; source: E. coli BL21-DE3, purified
B3: CaPCNA-90 (P253A, K254A) (natural protein)
chain: B2 chain with P253A, K254A
notes: source: E. coli BL21-DE3, purified
B4: 29-mer ubz peptide of CaPolη (607-635) (peptide)
peptide: KTKKCSRCKLSVDDPVEHNDYHIAMDLSN
notes: also called wild-type ubz peptide; WT UBZ peptide; source: synthetic peptide (China peptides Co Ltd, 98% purity)
B5: ScPolη: Saccharomyces cerevisiae DNA polymerase eta (protein)
chain: T1 sequence (looked up)
modifications: left off: GST, N-terminal, state not stated
notes: Saccharomyces cerevisiae DNA polymerase eta

Legend:
CaPCNA [1] = test: ITC binding to CaPCNA; set-up: species or system Candida albicans; details: 25 °C, pH 7.4, CaPCNA injected, about 10 μM Polη mutant in cell, negatives repeated at various concentrations
From the text: To identify a region of CaPolη involved in PCNA interaction, we generated a deletion construct by inserting a stop codon at amino acid position 513 (K513) of CaPolη. […] The wild-type and truncated CaPolη were purified, and their interaction with CaPCNA was monitored by isothermal calorimetry (ITC) analysis. […] Since CaPolη functionally complements ScPolη and protects the fungal cells from UV-induced DNA damages ([17], [25], [26]), to further strengthen our finding, various Polη orfs were expressed under the constitutive ADH1 promoter in rad30Δ and rad30Δrev3Δ S. cerevisiae strains, and susceptibility to UV irradiation was determined.
To map the precise location of PCNA binding, another deletant CaPolη 1 to 601 aa was constructed that lacks the last 39 residues encompassing the ubz domain but retains Seq-3 and Seq-4 (Fig. 2A). […] To ascertain the function of ubz domain, two D626A and H624A, H628A of CaPolη mutants were generated and their ability to suppress UV sensitivity of Polη-deficient S. cerevisiae strains was examined. […] Similarly, UV-induced mutation rate was estimated by counting the number of canavanine-resistant colonies of various S. cerevisiae strains harboring CaPolη constructs. […] Subsequently, ITC and GST-pull-down assays were carried out to determine the role of ubz in PCNA binding.

[2] = molecular target: B4; test: ITC; PCNA (200 μM, counted as a trimer) in the syringe, Polη (10 μM) or ubz peptide (20 μM) in the cell; 25 injections of 1.5 μl; 25 °C; 20 mM HEPES pH 7.4, 150 mM NaCl; single-site binding model; details: both partners purified
ScPolη = molecular target: T1, ScPolη; test: as above; details: both partners purified
[3] = molecular target: the molecule itself; test: SEC; about 10 μg of purified CaPCNA and CaPolη (1:1 M ratio) incubated 60 min at room temperature, or CaPCNA alone; Superdex 200 PC3.2/30; 50 mM HEPES pH 7.5, 150 mM NaCl, 10% glycerol; 0.05 ml/min, 4 °C
[4] = molecular target: wild-type CaPolη protein (1–640 aa) (Candida albicans); test: ITC; PCNA (200 μM, counted as a trimer) in the syringe, Polη (10 μM) or ubz peptide (20 μM) in the cell; 25 injections of 1.5 μl; 25 °C; 20 mM HEPES pH 7.4, 150 mM NaCl; single-site binding model
CaPCNA [5] = molecular target: B2; test: as above; details: both partners purified
ScPCNA [6] = molecular target: B1; test: as above; details: both partners purified
CaPCNA-90 (P253A, K254A) = molecular target: B3; test: as above; details: both partners purified
ScPCNA [7] = molecular target: T2, ScPCNA; test: ITC binding to ScPCNA; details: 25 °C
From the text: To understand whether any sequence or structural differences of the ubz domains in these Polηs have an impact on functional differences, we used the solution structure of the ubz domain of human Polη as a template and determined the structure of the ubz domain of both Sc- and Ca-Polηs by computational modeling (Fig. 3A). […] The two cysteines are located on the fingertip made by the two β-strands, and the two histidines are located on the α-helix. […] Next we examined whether the ubz peptide can inhibit the binding of PCNA to Polη. An equimolar mixture of the ubz peptide and PCNA was injected into the calorimetric cell having CaPolη to examine the interference of peptide on the interaction between PCNA and Polη by ITC.
All the purified proteins and purchased peptides were dialyzed overnight against 1 l of a buffer containing 20 mM HEPES (pH 7.4) and 150 mM NaCl at 4 °C to ensure complete removal of DTT and glycerol from the protein storage buffer, which could affect the heat exchange while they interact. ITC assays were performed using a Malvern MicroCal PEAQ-ITC calorimeter. Before the experiment, the cell and the syringe were thoroughly washed with water, followed by cell rinsing with a buffer. A control run was carried out to make sure that the buffer is not participating in heat change where the cell was filled with 300 μl of a buffer and concentrated CaPCNA or ScPCNA protein (200 μM) in the syringe. ITC was performed using various Polηs or UBZ peptide or UBZ mutant peptide in the sample cell and CaPCNA or ScPCNA or a mixture of CaPCNA+ WT UBZ peptide in the syringe. Twenty-five injections of 1.5 μl of protein from the syringe were given at intervals of 120 s with an initial delay of 120 s at 25 °C. The data were analyzed to determine the various kinetic parameters using a single-site binding model provided in the ITC analysis software package.

Molecule: 607-KTKKCSRCKLSVDDPVEANDYAIAMDLSN-635 [mutant peptide]
- Binding to CaPCNA by ITC (in words) (CaPCNA [1]): did not show any sign of binding

Molecule: B1
- dH [2]: -24.2 kcal/mol
- stoichiometry N [2]: 0.34
- Kd (ScPolη): 15.1 µM
- dH (ScPolη): -79.9 kcal/mol
- stoichiometry N (ScPolη): 0.31

Molecule: B2
- dH [2]: -80 kcal/mol
- stoichiometry N [2]: 0.355
- stoichiometry N [3]: 3
- Kd [4]: 7.15 µM
- dH [4]: -22.1 kcal/mol
- stoichiometry N [4]: 0.315

Molecule: B3
- dH [2]: -79.9 kcal/mol
- stoichiometry N [2]: 0.316

Molecule: B4
- Kd (CaPCNA [5]): 19.8 µM
- Kd (ScPCNA [6]): 15.6 µM
- Kd (CaPCNA-90 (P253A, K254A)): 39 µM

Molecule: B5
- Kd (ScPCNA [7]; 20 mM HEPES pH 7.4, 150 mM NaCl, syringe ScPCNA 200 μM, cell 10 μM ScPolη or 20 μM ubz peptide, single-site model, repeated twice): 15.1 µM
- Stoichiometry (ScPCNA [7]; pH 7.4, ScPCNA 200 μM in syringe): 0.31
- ΔG (ScPCNA [7]; pH 7.4, ScPCNA, unit not given): −6.58
- ΔH (ScPCNA [7]; pH 7.4, ScPCNA, unit not given): −79.9
- −TΔS (ScPCNA [7]; pH 7.4, ScPCNA, unit not given): 73.3
